Source: the Immune Epitope Database (IEDB)

Key:
[1] = biological target: HLA-C*14:02; test: IEDB peptide-MHC binding, purified MHC/direct/fluorescence; filed as Kd, often an IC50 or EC50 that approximates it; ≥ and ≤ were set here for values at or beyond the usual limits of such assays; details: source organism: Mycobacterium tuberculosis H37Rv
[2] = biological target: HLA-C*05:01; test: as above
[3] = biological target: HLA-C*03:03; test: as above; details: source organism: Mycobacterium tuberculosis H37Rv
[4] = biological target: HLA-C*12:03; test: as above; details: source organism: Leishmania major strain Friedlin
[5] = biological target: HLA-B*27:05; test: as above
[6] = biological target: HLA-B*15:01; test: as above
[7] = biological target: HLA-B*08:01; test: as above
[8] = biological target: HLA-B*58:01; test: as above
[9] = biological target: HLA-A*02:01; test: as above
[10] = biological target: HLA-A*31:01; test: as above
[11] = biological target: HLA-B*44:02; test: as above
[12] = biological target: HLA-A*01:01; test: as above
[13] = biological target: HLA-A*26:01; test: as above
[14] = biological target: HLA-A*03:01; test: as above
[15] = biological target: HLA-A*11:01; test: as above
[16] = biological target: HLA-A*30:01; test: as above
[17] = biological target: HLA-B*40:01; test: as above
[18] = biological target: HLA-A*69:01; test: as above
[19] = biological target: HLA-B*07:02; test: as above
[20] = biological target: HLA-B*58:01; test: IEDB peptide-MHC binding, purified MHC/competitive/radioactivity; filed as Kd, often an IC50 or EC50 that approximates it; ≥ and ≤ were set here for values at or beyond the usual limits of such assays
[21] = biological target: HLA-B*57:01; test: as above
[22] = biological target: HLA-B*53:01; test: as above; details: source organism: Dengue virus 3 Martinique/1243/1999
[23] = biological target: HLA-B*15:01; test: IEDB peptide-MHC binding, purified MHC/competitive/fluorescence; filed as Kd, often an IC50 or EC50 that approximates it; ≥ and ≤ were set here for values at or beyond the usual limits of such assays; details: source organism: Entamoeba dispar SAW760
[24] = biological target: HLA-A*02:03; test: as above; details: source organism: Entamoeba dispar SAW760
[25] = biological target: HLA-B*51:01; test: as above; details: source organism: Entamoeba dispar SAW760
[26] = biological target: HLA-A*31:01; test: as above; details: source organism: Entamoeba dispar SAW760
[27] = biological target: HLA-B*39:01; test: as above; details: source organism: Entamoeba dispar SAW760
[28] = biological target: HLA-A*26:01; test: as above; details: source organism: Entamoeba dispar SAW760
[29] = biological target: HLA-B*15:17; test: as above; details: source organism: Entamoeba dispar SAW760
[30] = biological target: HLA-A*23:01; test: as above
[31] = biological target: HLA-A*68:02; test: as above; details: source organism: Entamoeba dispar SAW760
[32] = biological target: HLA-B*46:01; test: as above; details: source organism: Entamoeba dispar SAW760
[33] = biological target: HLA-A*24:03; test: as above; details: source organism: Entamoeba dispar SAW760
[34] = biological target: HLA-B*57:01; test: as above; details: source organism: Entamoeba dispar SAW760
[35] = biological target: HLA-A*02:12; test: as above; details: source organism: Entamoeba dispar SAW760
[36] = biological target: HLA-B*27:03; test: as above; details: source organism: Entamoeba dispar SAW760
[37] = biological target: HLA-A*69:01; test: as above; details: source organism: Entamoeba dispar SAW760
[38] = biological target: HLA-A*02:19; test: as above; details: source organism: Entamoeba dispar SAW760
[39] = biological target: HLA-B*18:01; test: as above; details: source organism: Entamoeba dispar SAW760
[40] = biological target: HLA-A*24:03; test: IEDB peptide-MHC binding, purified MHC/direct/fluorescence; filed as Kd, often an IC50 or EC50 that approximates it; ≥ and ≤ were set here for values at or beyond the usual limits of such assays
[41] = biological target: HLA-A*32:01; test: IEDB peptide-MHC binding, purified MHC/competitive/radioactivity; filed as Kd, often an IC50 or EC50 that approximates it; ≥ and ≤ were set here for values at or beyond the usual limits of such assays; details: source organism: Dengue virus 1 Brazil/97-11/1997
[42] = biological target: HLA-B*35:01; test: IEDB peptide-MHC binding, purified MHC/direct/fluorescence; filed as Kd, often an IC50 or EC50 that approximates it; ≥ and ≤ were set here for values at or beyond the usual limits of such assays
[43] = source organism: Vibrio parahaemolyticus
[44] = source organism: Dengue virus 4 Philippines/H241/1956
[45] = source organism: Dengue virus 3 Martinique/1243/1999
[46] = source organism: Escherichia coli
[47] = source organism: Dengue virus 2 Jamaica/1409/1983
[48] = source organism: Dengue virus 1 Brazil/97-11/1997
[49] = source organism: Coxiella burnetii
[50] = source organism: Salmonella enterica subsp. enterica serovar Typhi
[51] = source organism: Salmonella enterica

Sequence: AAAANTTAL
- Kd [1]: 0.607 µM
- Kd ([2]; source organism: Mycobacterium tuberculosis H37Rv): 1.68 µM
- Kd [3]: ≤ 0.001 µM

Sequence: AAVDNAVVV
- Kd [4]: ≤ 0.001 µM

Sequence: DQFSIPIRY
- Kd [5, 43]: ≥ 20 µM
- Kd [6, 43]: 0.579 µM
- Kd [7, 43]: ≥ 20 µM
- Kd [8, 43]: ≥ 20 µM
- Kd [9, 43]: ≥ 20 µM
- Kd [10, 43]: ≥ 20 µM
- Kd [11, 43]: ≥ 20 µM
- Kd [12, 43]: ≥ 20 µM
- Kd [13, 43]: ≥ 20 µM
- Kd [14, 43]: ≥ 20 µM
- Kd [15, 43]: ≥ 20 µM
- Kd [16, 43]: 8.36 µM
- Kd [17, 43]: ≥ 20 µM
- Kd [18, 43]: ≥ 20 µM
- Kd [19, 43]: ≥ 20 µM

Sequence: EASISNITTA
- Kd [20, 44]: 1.63 µM
- Kd [21, 44]: ≥ 23.5 µM

Sequence: LATAIAGAW
- Kd [20, 45]: 0.0056 µM
- Kd [22]: 0.0199 µM
- Kd [21, 45]: 0.00719 µM

Sequence: LLDEPTNNL
- Kd ([2]; source organism: Bifidobacterium longum DJO10A): 0.007 µM
- Kd ([18]; source organism: Burkholderia mallei): 0.0883 µM

Sequence: LMTHTWHAK
- Kd [23]: ≥ 20 µM
- Kd [24]: ≥ 20 µM
- Kd [25]: ≥ 20 µM
- Kd [26]: 0.119 µM
- Kd [27]: ≥ 20 µM
- Kd [28]: ≥ 20 µM
- Kd [29]: ≥ 20 µM
- Kd ([30]; source organism: Entamoeba dispar SAW760): ≥ 20 µM
- Kd [31]: ≥ 20 µM
- Kd [32]: ≥ 20 µM
- Kd [33]: ≥ 20 µM
- Kd [34]: ≥ 20 µM
- Kd [35]: ≥ 20 µM
- Kd [36]: ≥ 20 µM
- Kd [37]: ≥ 20 µM
- Kd [38]: ≥ 20 µM
- Kd [39]: ≥ 20 µM

Sequence: MQLAKEHNF
- Kd ([30]; source organism: Francisella tularensis subsp. tularensis FSC198): 0.0291 µM

Sequence: NMERKLNLS
- Kd [5, 46]: ≥ 20 µM
- Kd [6, 46]: ≥ 20 µM
- Kd [7, 46]: ≥ 20 µM
- Kd [8, 46]: ≥ 20 µM
- Kd [9, 46]: ≥ 20 µM
- Kd [10, 46]: ≥ 20 µM
- Kd [12, 46]: ≥ 20 µM
- Kd [13, 46]: ≥ 20 µM
- Kd [14, 46]: ≥ 20 µM
- Kd [15, 46]: ≥ 20 µM
- Kd [40, 46]: ≥ 20 µM
- Kd [16, 46]: ≥ 20 µM
- Kd [17, 46]: ≥ 20 µM
- Kd [18, 46]: ≥ 20 µM

Sequence: RSWNSGHEW
- Kd [20, 47]: 0.00105 µM
- Kd [21, 47]: 0.00205 µM

Sequence: RSWNSGYDW
- Kd [20, 48]: 0.0135 µM
- Kd [41]: 0.0543 µM
- Kd [21, 48]: ≤ 0.001 µM

Sequence: VMKRNFIDF
- Kd [42, 49]: 1.13 µM
- Kd [5, 49]: ≥ 20 µM
- Kd [6, 49]: 0.0844 µM
- Kd [7, 49]: 2.25 µM
- Kd [8, 49]: ≥ 20 µM
- Kd [9, 49]: ≥ 20 µM
- Kd [10, 49]: ≥ 20 µM
- Kd [11, 49]: ≥ 20 µM
- Kd [12, 49]: ≥ 20 µM
- Kd [13, 49]: ≥ 20 µM
- Kd [14, 49]: ≥ 20 µM
- Kd [40, 49]: 4.91 µM
- Kd [16, 49]: 3.63 µM
- Kd [17, 49]: ≥ 20 µM
- Kd [18, 49]: ≥ 20 µM

Sequence: VPQTDAGVT
- Kd [42, 50]: 0.888 µM
- Kd [5, 51]: ≥ 20 µM
- Kd [6, 51]: ≥ 20 µM
- Kd [7, 51]: ≥ 20 µM
- Kd [8, 50]: ≥ 10 µM
- Kd [9, 51]: ≥ 20 µM
- Kd [10, 50]: 0.592 µM
- Kd [11, 51]: ≥ 20 µM
- Kd [12, 51]: ≥ 20 µM
- Kd [13, 51]: ≥ 20 µM
- Kd [14, 51]: ≥ 20 µM
- Kd [15, 50]: 2.9 µM
- Kd [40, 50]: 1.27 µM
- Kd [16, 50]: 4.4 µM
- Kd [17, 51]: ≥ 20 µM
- Kd [18, 51]: ≥ 20 µM
- Kd [19, 50]: 1.89 µM
